According to the Human Domainome abundance scans (Beltran et al. 2025):
± gives the uncertainty stated by the source.

B1: 3'-5' exoribonuclease 1, residues 65 to 114; numbered along this chain, Q8IV48 (parent)
chain: VYKEIAITNGCINRMSKEELRAKLSEFKLETRGVKDVLKKRLKNYYKKQK

Variants of: B1
Assay: abundance fitness (aPCA) (normalised: wild type 0, dead -1); higher = more abundant; growth selection in yeast, the domain comes from the species named
Conditions: Homo sapiens

Point of comparison: VYKEIAITNGCINRMSKEELRAKLSEFKLETRGVFDVLKKRLKNYYKKQK [K35F], abundance fitness -0.81 ± 0.052. Against it:
- VYKEIAITNGCINRMSKEELRAKLSEFKLETRGVHDVLKKRLKNYYKKQK [K35H] — higher, -0.709 ± 0.048
- VYKEIAITNGCINRMSKEELRAKLSEFKLETRGVKFVLKKRLKNYYKKQK [D36F] — higher, -0.289 ± 0.035
- VYKEIAITNGCINRMSKEELRAKLSEFKLETRGVKEVLKKRLKNYYKKQK [D36E] — higher, -0.379 ± 0.051
- VYKEIAITNGCINRMSKEELRAKLSEFKLETRGVKWVLKKRLKNYYKKQK [D36W] — higher, -0.106 ± 0.048
- VYKEIAITNGCINRMSKEELRAKLSEFKLETRGVKPVLKKRLKNYYKKQK [D36P] — higher, -0.17 ± 0.036
- VYKEIAITNGCINRMSKEELRAKLSEFKLETRGVKYVLKKRLKNYYKKQK [D36Y] — higher, -0.176 ± 0.034
- VYKEIAITNGCINRMSKEELRAKLSEFKLETRGVKTVLKKRLKNYYKKQK [D36T] — higher, -0.042 ± 0.037
- VYKEIAITNGCINRMSKEELRAKLSEFKLETRGVKHVLKKRLKNYYKKQK [D36H] — higher, 0 ± 0.036
- VYKEIAITNGCINRMSKEELRAKLSEFKLETRGVKSVLKKRLKNYYKKQK [D36S] — higher, 0.048 ± 0.032
- VYKEIAITNGCINRMSKEELRAKLSEFKLETRGVKMVLKKRLKNYYKKQK [D36M] — higher, -0.27 ± 0.048
- VYKEIAITNGCINRMSKEELRAKLSEFKLETRGVKRVLKKRLKNYYKKQK [D36R] — higher, 0 ± 0.035
- VYKEIAITNGCINRMSKEELRAKLSEFKLETRGVKNVLKKRLKNYYKKQK [D36N] — higher, 0.02 ± 0.036
- VYKEIAITNGCINRMSKEELRAKLSEFKLETRGVKKVLKKRLKNYYKKQK [D36K] — higher, 0.044 ± 0.054
- VYKEIAITNGCINRMSKEELRAKLSEFKLETRGVKQVLKKRLKNYYKKQK [D36Q] — higher, -0.236 ± 0.047
- VYKEIAITNGCINRMSKEELRAKLSEFKLETRGVKGVLKKRLKNYYKKQK [D36G] — higher, -0.244 ± 0.035
- VYKEIAITNGCINRMSKEELRAKLSEFKLETRGVKAVLKKRLKNYYKKQK [D36A] — higher, -0.024 ± 0.035
- VYKEIAITNGCINRMSKEELRAKLSEFKLETRGVKIVLKKRLKNYYKKQK [D36I] — higher, -0.334 ± 0.037
- VYKEIAITNGCINRMSKEELRAKLSEFKLETRGVKVVLKKRLKNYYKKQK [D36V] — higher, -0.292 ± 0.035
- VYKEIAITNGCINRMSKEELRAKLSEFKLETRGVKLVLKKRLKNYYKKQK [D36L] — higher, -0.201 ± 0.033
- VYKEIAITNGCINRMSKEELRAKLSEFKLETRGVKDVQKKRLKNYYKKQK [L38Q] — within error, -0.874 ± 0.076
- VYKEIAITNGCINRMSKEELRAKLSEFKLETRGVKDVAKKRLKNYYKKQK [L38A] — within error, -0.893 ± 0.11
- VYKEIAITNGCINRMSKEELRAKLSEFKLETRGVKDVPKKRLKNYYKKQK [L38P] — lower, -0.968 ± 0.072
- VYKEIAITNGCINRMSKEELRAKLSEFKLETRGVKDVGKKRLKNYYKKQK [L38G] — lower, -1.09 ± 0.1
- VYKEIAITNGCINRMSKEELRAKLSEFKLETRGVKDVRKKRLKNYYKKQK [L38R] — lower, -0.948 ± 0.072
- VYKEIAITNGCINRMSKEELRAKLSEFKLETRGVKDVKKKRLKNYYKKQK [L38K] — within error, -0.828 ± 0.11
- VYKEIAITNGCINRMSKEELRAKLSEFKLETRGVKDVWKKRLKNYYKKQK [L38W] — higher, -0.629 ± 0.087
- VYKEIAITNGCINRMSKEELRAKLSEFKLETRGVKDVFKKRLKNYYKKQK [L38F] — higher, -0.668 ± 0.049
- VYKEIAITNGCINRMSKEELRAKLSEFKLETRGVKDVSKKRLKNYYKKQK [L38S] — higher, -0.458 ± 0.042
- VYKEIAITNGCINRMSKEELRAKLSEFKLETRGVKDVDKKRLKNYYKKQK [L38D] — higher, -0.376 ± 0.25
- VYKEIAITNGCINRMSKEELRAKLSEFKLETRGVKDVMKKRLKNYYKKQK [L38M] — higher, -0.338 ± 0.066
- VYKEIAITNGCINRMSKEELRAKLSEFKLETRGVKDVYKKRLKNYYKKQK [L38Y] — lower, -1.05 ± 0.085
- VYKEIAITNGCINRMSKEELRAKLSEFKLETRGVKDVIKKRLKNYYKKQK [L38I] — higher, -0.541 ± 0.049
- VYKEIAITNGCINRMSKEELRAKLSEFKLETRGVKDVEKKRLKNYYKKQK [L38E] — within error, -0.933 ± 0.2
- VYKEIAITNGCINRMSKEELRAKLSEFKLETRGVKDVNKKRLKNYYKKQK [L38N] — lower, -0.95 ± 0.07
- VYKEIAITNGCINRMSKEELRAKLSEFKLETRGVKDVTKKRLKNYYKKQK [L38T] — lower, -0.993 ± 0.065
- VYKEIAITNGCINRMSKEELRAKLSEFKLETRGVKDVHKKRLKNYYKKQK [L38H] — lower, -1.02 ± 0.076
- VYKEIAITNGCINRMSKEELRAKLSEFKLETRGVKDVLKNRLKNYYKKQK [K40N] — higher, -0.319 ± 0.067
- VYKEIAITNGCINRMSKEELRAKLSEFKLETRGVKDVLKDRLKNYYKKQK [K40D] — within error, -0.741 ± 0.062
- VYKEIAITNGCINRMSKEELRAKLSEFKLETRGVKDVLKVRLKNYYKKQK [K40V] — higher, -0.669 ± 0.038
- VYKEIAITNGCINRMSKEELRAKLSEFKLETRGVKDVLKGRLKNYYKKQK [K40G] — within error, -0.777 ± 0.04
- VYKEIAITNGCINRMSKEELRAKLSEFKLETRGVKDVLKFRLKNYYKKQK [K40F] — lower, -0.992 ± 0.073
- VYKEIAITNGCINRMSKEELRAKLSEFKLETRGVKDVLKPRLKNYYKKQK [K40P] — lower, -0.951 ± 0.068
- VYKEIAITNGCINRMSKEELRAKLSEFKLETRGVKDVLKLRLKNYYKKQK [K40L] — higher, -0.608 ± 0.037
- VYKEIAITNGCINRMSKEELRAKLSEFKLETRGVKDVLKTRLKNYYKKQK [K40T] — higher, -0.398 ± 0.044
- VYKEIAITNGCINRMSKEELRAKLSEFKLETRGVKDVLKSRLKNYYKKQK [K40S] — higher, -0.521 ± 0.039
- VYKEIAITNGCINRMSKEELRAKLSEFKLETRGVKDVLKMRLKNYYKKQK [K40M] — higher, -0.634 ± 0.057
- VYKEIAITNGCINRMSKEELRAKLSEFKLETRGVKDVLKHRLKNYYKKQK [K40H] — higher, -0.576 ± 0.056
- VYKEIAITNGCINRMSKEELRAKLSEFKLETRGVKDVLKCRLKNYYKKQK [K40C] — higher, -0.705 ± 0.052
- VYKEIAITNGCINRMSKEELRAKLSEFKLETRGVKDVLKIRLKNYYKKQK [K40I] — within error, -0.819 ± 0.07
- VYKEIAITNGCINRMSKEELRAKLSEFKLETRGVKDVLKERLKNYYKKQK [K40E] — higher, -0.44 ± 0.055
- VYKEIAITNGCINRMSKEELRAKLSEFKLETRGVKDVLKARLKNYYKKQK [K40A] — higher, -0.427 ± 0.038
